# Assay results from paper PMC7425898, “Human Golgi phosphoprotein 3 is an effector of RAB1A and RAB1B” (PLoS ONE, 2020).
# B1: Purified, recombinant RAB1B (natural protein)
# chain: not shown
# notes: RAB1B, human, full length, from pGST-Parallel-1, GST removed by TEV protease; source: E. coli B834(DE3), purified (glutathione-Sepharose 4B, TEV cleavage, Ni-NTA, Superdex 200)
# B2: GST-RAB1B (wild type) (natural protein)
# chain: not shown
# notes: RAB1B, human, full length, cloned into pGST-Parallel-1; also called GST-tagged RAB1B; GST-RAB1A/B; source: E. coli B834(DE3), purified on glutathione-Sepharose 4B
# B3: Endogenous GOLPH3 (natural protein, human (endogenous in H4), UniProt Q9H4A6 1-298, looked up)
# chain: MTSLTQRSSGLVQRRTEASRNAADKERAAGGGAGSSEDDAQSRRDEQDDDDKGDSKETRLTLMEEVLLLGLKDREGYTSFWNDCISSGLRGCMLIELALRGRLQLEACGMRRKSLLTRKVICKSDAPTGDVLLDEALKHVKETQPPETVQNWIELLSGETWNPLKLHYQLRNVRERLAKNLVEKGVLTTEKQNFLLFDMTTHPLTNNNIKQRLIKKVQEAVLDKWVNDPHRMDRRLLALIYLAHASDVLENAFAPLLDEQYDLATKRVRQLLDLDPEVECLKANTNEVLWAVVAAFTK
# notes: Golgi phosphoprotein 3 (GOLPH3), endogenous in human H4 neuroglioma cells; source: endogenous, H4 human neuroglioma cells, soluble protein extract
# B4: Purified, recombinant RAB1A (natural protein)
# chain: not shown
# notes: RAB1A, human, full length, from pGST-Parallel-1, GST removed by TEV protease; source: E. coli B834(DE3), purified (glutathione-Sepharose 4B, TEV cleavage, Ni-NTA, Superdex 200)
# B5: GST-RAB1A (wild type) (natural protein)
# chain: not shown
# notes: RAB1A, human, full length, cloned into pGST-Parallel-1; also called GST-tagged RAB1A; GST-RAB1A/B; source: E. coli B834(DE3), purified on glutathione-Sepharose 4B
# Experiments:
# [1] = biological target: T1, Recombinant, untagged GOLPH3 (human, UniProt Q9H4A6 1-298); experiment: ITC; GOLPH3 (100 μM) in the chamber, RAB1A or RAB1B (1 mM) injected; 25°C; 50 mM Tris-HCl, 150 mM NaCl, 1 mM DTT, pH 7.4; one-site model; no nucleotide exchange; conditions: both partners purified
# T1 construct: Golgi phosphoprotein 3 (GOLPH3), human, full-length cDNA NM_022130, cloned into pGST-Parallel-1; removal of GST by TEV is surmised from the vector and from the method told for RAB1; also called purified recombinant GOLPH3; not shown: GST, N-terminal, cleaved
# [2] = biological target: T1, Recombinant, untagged GOLPH3; experiment: pull-down; GST-RAB1A/B (50 μM) or GST on glutathione-Sepharose 4B, increasing concentrations of recombinant GOLPH3; 20 mM HEPES, 100 mM NaCl, 5 mM MgCl2, 1 mM DTT, 1% CHAPS, pH 7.2; 3 h, 4°C; Coomassie, densitometry, non-linear fit assuming 1:1; apparent KD; conditions: both partners purified
# GFP-RAB1B-Q67L = biological target: T2, GFP-RAB1B-Q67L (human, UniProt Q9H0U4 1-201, Q67L); experiment: co-IP; GFP-Trap agarose beads with extracts (0.2 mg) of H4 cells expressing GFP or GFP-RAB1A/B variants, supplemented with extract (0.3 mg) of non-transfected cells; 25 mM Tris-HCl, 50 mM NaCl, 0.1% NP-40, pH 7.5; 1.5-4 h, 4°C; immunoblot for GOLPH3, densitometry; conditions: partners not purified
# T2 construct: RAB1B, human, pEGFP construct, GTP-locked variant; also called GFP-tagged GTP-locked active state variant of RAB1B; source: H4 cells, transfected (pEGFP construct), in soluble protein extract
# GFP-RAB1A-Q70L = biological target: T3, GFP-RAB1A-Q70L (human, UniProt P62820 1-205, Q70L); experiment: as above; conditions: partners not purified
# T3 construct: RAB1A, human, pEGFP construct, GTP-locked variant; also called GFP-tagged GTP-locked active state variant of RAB1A; source: H4 cells, transfected (pEGFP construct), in soluble protein extract
# GST-RAB1B-Q67L = biological target: T4, GST-RAB1B-Q67L (human, UniProt Q9H0U4 1-201, Q67L); experiment: pull-down; GST or GST-tagged RAB1A/B variants on glutathione-Sepharose 4B, soluble protein extract of H4 cells (0.5 mg) with protease and phosphatase inhibitors; binding buffer-1; 3 h, 4°C; immunoblot for GOLPH3, densitometry; conditions: one partner purified
# T4 construct: RAB1B, human, full length, in pGST-Parallel-1, GTP-locked variant; also called GST-tagged, GTP-locked active state variant of RAB1B; source: E. coli B834(DE3), purified on glutathione-Sepharose 4B
# GST-RAB1A-Q70L = biological target: T5, GST-RAB1A-Q70L (human, UniProt P62820 1-205, Q70L); experiment: as above; conditions: one partner purified
# T5 construct: RAB1A, human, full length, in pGST-Parallel-1, GTP-locked variant; also called GST-tagged, GTP-locked active state variant of RAB1A; source: E. coli B834(DE3), purified on glutathione-Sepharose 4B
# T5 sequence (P62820 whole entry Q70L): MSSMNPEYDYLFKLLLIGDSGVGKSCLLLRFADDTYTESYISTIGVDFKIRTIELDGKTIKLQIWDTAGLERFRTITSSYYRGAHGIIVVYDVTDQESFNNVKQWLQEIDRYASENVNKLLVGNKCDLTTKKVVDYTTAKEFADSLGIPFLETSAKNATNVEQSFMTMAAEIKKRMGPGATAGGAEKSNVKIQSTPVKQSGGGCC
# T3 sequence (P62820 whole entry Q70L): as above
# T4 sequence (Q9H0U4 whole entry Q67L): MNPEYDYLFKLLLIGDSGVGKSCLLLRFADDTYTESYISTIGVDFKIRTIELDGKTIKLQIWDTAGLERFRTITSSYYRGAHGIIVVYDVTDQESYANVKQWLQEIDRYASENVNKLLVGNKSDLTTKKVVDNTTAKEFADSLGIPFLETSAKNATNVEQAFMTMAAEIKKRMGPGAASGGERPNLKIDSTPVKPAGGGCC
# T2 sequence (Q9H0U4 whole entry Q67L): as above
binder,measurement,setting,value
B1,Kd,[1],78.4 µM
same,stoichiometry N,[1],1
B2,Kd,[2],64.2 ± 3.7 µM
B3,fold of GOLPH3 pulled down against the wild type variant,GFP-RAB1B-Q67L,~1.1 times
same,fold of GOLPH3 pulled down against the wild type variant,GFP-RAB1A-Q70L,~1.2 times
same,fold of GOLPH3 pulled down against the wild type variant,GST-RAB1B-Q67L,~1.1 times
same,fold of GOLPH3 pulled down against the wild type variant,GST-RAB1A-Q70L,~1.2 times
B4,Kd,[1],61.9 µM
same,stoichiometry N,[1],1
B5,Kd,[2],54.7 ± 4.2 µM
